One assay relates to PARP. The conditions noted are these: cited from earlier work.
The subject of assay [1] is triple-negative breast cancers (TNBC). Conditions: TNBC patients, cited from earlier work.
Assay [2] has as its system OVCAR5 cell line xenograft. As to the kind of experiment: Human OVCAR5 cell line xenograft ovarian cancer mouse model, tumor growth. The assay is classed as in vivo. The conditions noted are these: 10 mg/kg on day 1. As for the experimental part: FIG. 17A is a graph showing the effects on tumor growth in a human OVCAR5 cell line xenograft ovarian cancer mouse model for ^225Ac-labeled HER3 antibody, in a single dose of 0.2 μCi or 0.4 μCi, versus standard of care Bevacizumab (10 mg/kg), ^225Ac-labeled non-specific IgG control (0.4 μCi), and naked (cold) HER3 mAb control (10 μg). All agents/controls were dosed on day 1.
FIG. 17B is a graph showing the effects on tumor growth in a human OVCAR5 cell line xenograft ovarian cancer mouse model for ^177Lu-labeled HER3 antibody, in a single dose of 200 μCi or 400 μCi, versus standard of care Bevacizumab (10 mg/kg), ^177Lu-labeled non-specific IgG control (400 μCi), and naked (cold) HER3 mAb control (10 μg). All agents/controls were dosed on day 1.
Background: A xenograft is tissue or cells of one species grown in another, often human tumour cells in immunodeficient mice.

A further assay concerns the target T1, total HER3 (Homo sapiens, UniProt P21860).
T1 construct: host or cells: tumour biopsies of patients
Conditions: 40 mg/kg; cited from earlier work.

The next assay concerns the target HER3 (Homo sapiens, UniProt P21860). Conditions: cited from earlier work.
In another assay the test system is HER3-expressing tumors. Conditions: 0.1 mg/kg and 0.3 mg/kg; cited from earlier work.
For the next assay, the target named is T2, surface HER3 (Homo sapiens, UniProt P21860).
T2 construct: host or cells: tumour biopsies of patients
The conditions noted are these: across all dose levels tested (100-2000 mg); cited from earlier work.

A further assay addresses human recombinant HER3 (human, UniProt P21860 20-643). As to the kind of experiment: ELISA, plate coated with human recombinant HER3, serial dilutions 0-100 µg/ml, anti-human IgG F(ab')2-HRP secondary. As for the experimental part:
A secondary antibody (Goat Anti-human IgG F (ab′) 20-HRP) was added and incubated for 30 min on ice followed by color development using […] for 10 min.
In general terms: ELISA stands for enzyme-linked immunosorbent assay.

Assay [3] concerns ACHN human renal cancer cells xenograft. As to the kind of experiment: ACHN human renal cell carcinoma xenograft in Balb/c nude mice, tumor growth. The assay is classed as in vivo, mouse. Conditions: 100 μg on day 1, intravenously. The protocol:
In more detail, the experiment was performed as follows. Female Balb/c nude mice were subcutaneously injected with 5×10^6 ACHN human renal cancer cells (ATCC; CRL-1611). […] Drug treatments were administered orally for vehicle (PBS) and tivozanib or intravenously for unlabeled/unconjugated HER3 monoclonal antibody (HER3), HER3-ARC (Actinium-225 labeled HER3 antibody) and HER3-ADC (patritumab deruxtecan). Single agents or combinations were dosed as follows: vehicle (daily for 14 days), unlabeled/unconjugated HER3 antibody (100 μg on day 1), HER3-ADC (3 mg/kg on day 1 and 21), HER3-ARC (0.4 μCi on day 1 and 0.2 μCi on day 21), tivozanib (0.3 mg/kg daily for 14 days), tivozanib (0.3 mg/kg daily for 14 days) with HER3-ARC (0.4 μCi on day 16), and HER3-ARC (0.4 μCi on day 1) with tivozanib (0.3 mg/kg starting day 3, daily for 14 days). […] HER3-ARC was always administered in a total protein dose of 50 μg irrespective of the radiation dose. Tumor volumes were measured twice weekly by caliper and body weights were monitored. The mean tumor volume for each group was analyzed and graphed using GraphPad Prism software and statistical analysis is performed with Tukey's multiple comparisons test.

Assay [4] concerns DU145 human prostate cancer line. The assay is described as follows: Fluorescence flow cytometry cell binding assay, DU145. From the text:
(§1) FIG. 14 is a graph showing the fluorescence flow cytometry cell binding assay results for naked (unlabeled) and DOTA-conjugated (specifically, p-SCN-Bn-DOTA-conjugated) anti-HER3 antibodies AT02 and AV-203, versus nonstained control, secondary antibody (SA) only control, and non-specific IgG primary antibody control, for three human prostate cancer lines, DU145, 22RV1 and LnCAP.
(In general: A flow cytometer gives signals particle by particle.)

Assay [5] relates to 22RV1 human prostate cancer line. The assay is described as follows: Fluorescence flow cytometry cell binding assay, 22RV1.
Excerpt: as §1

Assay [6] deals with LnCAP human prostate cancer line. As to the kind of experiment: Fluorescence flow cytometry cell binding assay, LnCAP.
Excerpt: as §1

Regarding `NC(=O)c1cccc2cn(-c3ccc([C@@H]4CCCNC4)cc3)nc12` [niraparib], the IC50 values result in the assay with PARP was “nanomolar range”.

With `O=C(c1cc(Cc2n[nH]c(=O)c3ccccc23)ccc1F)N1CCN(C(=O)C2CC2)CC1` [olaparib], the disease stabilization rate result in assay [1] (BRCA1/2-mutant vs non-mutant) is “higher disease stabilization rate in BRCA1/2-mutant compared to non-mutant patients”. Further, the sustained responses result in assay [1] (either cohort) is recorded as “no sustained responses”.

Regarding `CNCc1ccc(-c2[nH]c3cc(F)cc4c3c2CCNC4=O)cc1` [rucaparib], the IC50 values entry in the assay on PARP is “nanomolar range”.

As for `Cn1ncnc1[C@H]1c2n[nH]c(=O)c3cc(F)cc(c23)N[C@@H]1c1ccc(F)cc1` [talazoparib], the IC50 values entry with PARP is listed as “picomolar range”.

`C[C@]1(c2nc3c(C(N)=O)cccc3[nH]2)CCCN1` [veliparib]: the IC50 values result in the assay on PARP is given as “nanomolar range”.

On to “Bevacizumab: standard of care agent; VEGF inhibitor [reference compound]”, for which the “antitumor efficacy (tumor growth)” value in [2] was “minimal effect”.

As for “LJM716: HER3-targeting antibody from Novartis”, the “decrease in total HER3 levels, paired tumor biopsy samples” value in the assay with total HER3 was “three out of five”.

As to lumretuzumab: HER3 antibody from Roche, the “downregulation of HER3” value with HER3 (1-10 mg/kg) was “dose-dependent”. Besides, the HER3 target downregulation entry in the assay with HER3 (lowest dose 0.3 mg/kg) is on record as “did not result in HER3 target downregulation”. The “control of HER3-expressing tumors” value in the assay with HER3-expressing tumors is “ineffective”. Moreover, the “downregulation of surface HER3 in serial tumor biopsies” value in the assay with surface HER3 was 92 % of patients.

B1: 225Ac-HER3-ARC (Actinium-225 labeled, p-SCN-Bn-DOTA-conjugated anti-HER3 IgG monoclonal antibody, heavy chain SEQ ID NO:77 and light chain SEQ ID NO:78) (antibody, V domains shown)
VH: QVQLVESGGGLVKPGGSLRLSCAASGFTFSDYAMSWIRQAPGKGLEWVSTISDGGTYTYYPDSVKGRFTISRDNAKNSLYLQMNSLRAEDTAVYYCAREWGDYDGFDYWGQGTLVTVSS
VL: DIQMTQSPSSLSASVGDRVTITCRASQEISGYLSWYQQKPGKAPKRLIYAASTLDSGVPSRFSGSGSGTEFTLTISSLQPEDFATYYCLQYDSYPYTFGQGTKLEIKR
modifications: conjugated to the chelator DOTA using p-SCN-Bn-DOTA and radiolabeled via chelation with Actinium-225; sites of conjugation not stated
notes: Antibody radioconjugate of m1; also called Ac225 labeled DOTA-conjugated anti-HER3 monoclonal antibody
What is called EC50 is the midpoint of the concentration-response curve. For the molecule B1, in the assay with human recombinant HER3, the concentration giving a half-maximal response (EC50) turned out to be 1.7 ng/mL.

B2: anti-HER3 IgG monoclonal antibody consisting of heavy chain SEQ ID NO:77 and light chain SEQ ID NO:78 (unmodified) (antibody, V domains shown)
VH: B1 VH
VL: B1 VL
notes: IgG; Detected with an anti-human IgG secondary antibody; also called unmodified anti-HER3 mAb; unmodified anti-HER3 antibody
With B2, the concentration giving a half-maximal response (EC50) in the assay with human recombinant HER3 is 2.2 ng/mL.

B3: AV-203: anti-HER3 monoclonal antibody from AVEO Oncology; heavy chain variable region SEQ ID NO:21, light chain variable region SEQ ID NO:22 (antibody, V domains shown)
VH: B1 VH
VL: DIQMTQSPSSLSASVGDRVTITCRASQEISGYLSWYQQKPGKAPKRLIYAASTLDSGVPSRFSGSGSGTEFTLTISSLQPEDFATYYCLQYDSYPYTFGQGTKLEIK
With B3, the “tumor growth (mean tumor volume)” value in assay [3] is “no effect on tumor growth”. Besides, the cell binding result was “specifically and comparably bound” in assay [4]; “specifically and comparably bound” in assay [5]; “specifically and comparably bound” in assay [6].

B4: DOTA conjugated AV-203 (conjugate)
VH: B1 VH
VL: B3 VL
In the case of B4, the cell binding entry is “specifically and comparably bound” in assay [4]; “specifically and comparably bound” in [5]; “specifically and comparably bound” in assay [6].

The values above are taken from patent US20250205375A1, “HER3 RADIOIMMUNOTHERAPY FOR THE TREATMENT OF SOLID CANCERS” (ACTINIUM PHARMACEUTICALS, INC., priority 2023, published 2025).
